Experimental data from article PMC5573810.

Legend:
[1] = molecular target: gp120-ferritin (gp120-FR) nanoparticle; experiment: ELISA
[2] = molecular target: clade-C (ZM109) V1V2-ferritin nanoparticle (V1V2-FR) (HIV-1 ZM109 (clade C) | not stated) (UniProt Q9ZLI1); experiment: ELISA

For PGT121, the EC50 [1] was 0.077 µg/mL and the EC50 [2] was 0.87 µg/mL.
